Experimental findings from patent US20150148405A1, “Expression Construct for a Lin28-Resistant Let-7 Precursor MicroRNA” (THE JOHNS HOPKINS UNIVERSITY, priority 2012, published 2015) are described below.

Format in all cases: cell-based, mouse
In assay [1] the test system is hippocampal pyramidal neurons. The assay is described as follows: Live cell imaging of P-body numbers (GFP-Dcp1a). Conditions: BDNF-stimulated vs mock, GFP-Dcp1a live imaging, in presence of Actinomycin-D. The method, then: Dissociated hippocampal cultures were prepared from postnatal day 0 (P0) mice as previously described (Meffert et al., 2003). Knockdown was by lentiviral-mediated delivery of shRNA to cultures at multiplicity of infection of 5-10, 48 hr before imaging or 4-5 days for GW182. Cultures were preincubated 10-20 min and mock- or BDNF-stimulated (100 ng/mL BDNF) in the presence of Actinomycin-D (0.5 μg/mL), unless indicated otherwise.
Confocal images of hippocampal pyramidal neurons were acquired on either a Yokogawa spinning disk (Zeiss) at 37° C. (live cells), or a LSM5 Pascal system (fixed cells). Laser power and exposure time were adjusted to minimize photobleaching and avoid saturation. […]
Dissociated hippocampal cultures were prepared from postnatal day 0 (P0) mice as previously described (Meffert et al., 2003) and were maintained in Neurobasal A medium (Gibco, 10888) with B27 Supplement (Gibco 17504-44). […] For live cell imaging, confocal images of hippocampal pyramidal neurons (excitatory, determined by morphology) in 0.24-0.3 μm Z sections were acquired using a 40×, 1.3 NA, EC Plan Neofluoar (whole cells) or a 100×, 1.4 NA Plan Apochromat oil immersion objective (dendrites) on a Yokogawa spinning disk system (Cell Observer, Carl Zeiss) at 37° C. in Tyrodes buffer (in mM: 119 NaCl, 5 KCl, 2 CaCl2, 0.2 MgCl2, Glucose, 25 Hepes, 0.01 Glycine, pH 7.4). […]

The test system of assay [2] is Dicer. Nature of the assay: Immunoblotting for Dicer. Conditions: BDNF-stimulated neurons, Actinomycin-D. The method, then:
Primary cultures of mouse hippocampal neurons (DIV 14 15) were incubated in serum-reduced medium (0.5% B27 supplement) for 2 hours, followed by […] Actinomycin-D for 10-20 min. Bath application of BDNF (100 ng/mL) was for designated periods (5 min-2 hours). The cultures were washed 3 times and harvested on ice with lysis buffer (50 mM Hepes, 150 mM NaCl, 10% Glycerol, 1 mM EDTA, 1% Triton-X-100, 0.2% SDS) plus freshly added protease inhibitor cocktail (Roche) and PMSF. Protein concentration was determined by Bradford Assay. If required, lysates were treated with Lambda Protein Phosphatase according to manufacturer's instructions (New England Biolabs […]). Equal amounts of lysate protein were resolved on SDS-PAGE gels, and electrotransferred to PVDF membrane. […]

The test system of assay [3] is Let-7 family, miR-107, miR-143. Nature of the assay: Individual TaqMan RT-qPCR of mature miRNA levels. Conditions: BDNF vs mock, normalized to 18s rRNA. How it is done:
For individual microRNA abundance assays (Applied Biosystems), 100 ng of total isolated RNA was prepared for reverse transcription with stem-looped primers specific for individual mature miRNAs in a final volume of 15 μL according to manufacturer's protocol; 4° C. for 5 min, 16° C. for 30 min, 42° C. for 30 min, 85° C. for 5 min. and subjected to TaqMan MicroRNA Assays (Applied Biosystems) for Let-7a (assay ID: 000377), Let-7b (002619), Let-7e (002406), Let-7f1 (000382), miR-107 (000443) and miR-143 ([…]). RT-qPCR was performed using a Stratagene Mx3000P machine and software with quantities derived by standard-curve quantitation method. The abundance of non-coding 18s rRNA in each sample was used as an internal control to normalize all miRNA species.
(Real-time PCR tracks product formation cycle by cycle.)

B1: BDNF: brain-derived neurotrophic factor, a neurotrophin used to stimulate hippocampal neurons (protein, UniProt P23560 19-247, looked up)
Neurotrophic factor BDNF …: APMKEANIRGQGGLAYPGVRTHGTLESVNGPKAGSRGLTSLADTFEHVIEELLDEDQKVRPNEENNKDADLYTSRVMLSSQVPLEPPLLFLLEEYKNYLDAANMSMRVRRHSDPARRGELSVCDSISEWVTAADKKTAVDMSGGTVTVLEKVPVSKGQLKQYFYETKCNPMGYTKEGCRGIDKRHWNSQCRTTQSYVRALTMDSKKRIGWRFIRIDTSCVCTLTIKRGR
Turning to B1, in assay [1], the “number of dendritic and somatic P-bodies” value was “rapid and robust increase in the number of both dendritic and somatic P-bodies”. In assay [2], the Dicer levels entry is reported as “marked transcription-independent increase in Dicer levels” and the “time of peak Dicer levels after stimulation” value was 5 to 20 min. The “abundance of Let-7 family members, miR-107 and miR-143” value in assay [3] is “significant and reproducible BDNF-induced decreases in abundance”.
